Results taken from patent publication US20190218308A1 (INNATE PHARMA, published 2019).
Numbering of substitutions follows the chain as printed.

Legend:
CD39 mutant 19 = biological target: T1, CD39 mutant 19 (human, UniProt P49961 1-510); experiment: flow cytometry, Hek-293T cells transfected with CD39 mutant 19 (panel M19); antibody concentration not shown
T1 construct: Expressed on Hek-293T cells; also called M19
T1 chain: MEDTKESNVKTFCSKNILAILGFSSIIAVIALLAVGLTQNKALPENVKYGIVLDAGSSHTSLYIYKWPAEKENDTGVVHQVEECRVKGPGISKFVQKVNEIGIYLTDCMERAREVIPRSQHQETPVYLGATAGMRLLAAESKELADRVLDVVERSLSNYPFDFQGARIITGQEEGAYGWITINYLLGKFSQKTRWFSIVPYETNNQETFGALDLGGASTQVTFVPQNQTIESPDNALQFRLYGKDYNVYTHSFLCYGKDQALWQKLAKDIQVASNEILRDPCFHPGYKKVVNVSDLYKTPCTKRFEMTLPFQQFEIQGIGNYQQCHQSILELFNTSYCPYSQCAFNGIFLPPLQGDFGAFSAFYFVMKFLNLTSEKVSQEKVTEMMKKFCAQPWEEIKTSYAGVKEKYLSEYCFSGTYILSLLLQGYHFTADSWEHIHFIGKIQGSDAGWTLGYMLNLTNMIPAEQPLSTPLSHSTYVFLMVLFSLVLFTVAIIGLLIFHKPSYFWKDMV
Method: (§1) Mutants were transfected in Hek-293T cells, as shown in the table 1, using numbering of SEQ ID NO: 2. […] Mutant 19 includes substitutions at residues R138, M139 and E142.
(§2) Mutants were transfected in Hek-293T cells, as shown in the table 1, using numbering of SEQ ID NO: 2. Dose-ranges of test antibodies (10-2.5-0.625-0.1563-0.0391-0.0098-0.0024-0.0006 μg/ml) are tested on the 20 generated mutants by flow cytometry.

[1] = biological target: T2, human CD39 (NTPDase1, ENTPD1), membrane-bound, on cells (human, UniProt P49961 1-510); experiment: flow cytometry on Ramos lymphoma cells, second set of experiments
T2 construct: Expressed on CHO cells, Hek-293T cells (wild type) or endogenous on Ramos cells; also called huCD39; CHO-huCD39
T2 sequence: T1 chain with A138R, A139M, K142E
Method: (§3) Cells were incubated with various concentration of unlabeled anti-CD39 antibody from 30 μg/ml to 5×10⁻⁴ μg/ml, for 30 minutes at 4° C. After washes, cells were incubated with Goat anti-mouse H+L labeled secondary antibody for 30 min at 4° C.

[2] = biological target: T2, human CD39 (NTPDase1, ENTPD1), …; experiment: flow cytometry on Ramos lymphoma cells, first set of experiments
Method: as §3

CD39 mutant 15 = biological target: T3, CD39 mutant 15 (human, UniProt P49961 1-510); experiment: flow cytometry, Hek-293T cells transfected with CD39 mutant 15 (panel M15), table under the panel; unstained (US) 8,98; antibody concentration not shown
T3 construct: Expressed on Hek-293T cells; also called M15
T3 chain: T1 chain with K87A, E100A, D107A, A138R, A139M, K142E
Method: as §1, §2

- binding result (CD39 mutant 19): no binding
- EC50 [1]: 0.19 mg/L
- EC50 [2]: 0.16 mg/L
- Median : Comp-Alexa Fluor 647-A (CD39 mutant 15): 6360
B1: antibody I-394 (antibody, human IgG1, kappa, V domains shown)
VH: EVQLQQSGPELVKPGASVKMSCKASGYTFTDYNMHWVKQSHGRTLEWIGYIVPLNGGSTFNQKFKGRATLTVNTSSRTAYMELRSLTSEDSAAYYCARGGTRFAYWGQGTLVTVSA
VL: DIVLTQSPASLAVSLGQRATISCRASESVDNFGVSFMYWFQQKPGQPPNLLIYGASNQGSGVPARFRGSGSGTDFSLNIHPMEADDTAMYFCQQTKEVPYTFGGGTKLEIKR
